Source: the supplement of paper PMC10567573

B1: CHMP4C (parent)
chain: TNIRLPNVPSSSLPAQPNRKPGMS

Variants of: B1
Experiment: protein stability index of a GFP-peptide fusion (GPS, HEK-293T) (PSI 1-6); higher = more stable
Details: c terminus: a fixed tail appended
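Note: lentivirally expressed fusions sorted by FACS into six bins by GFP to DsRed ratio, PSI derived from sequencing read proportions per bin multiplied by bin number.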

Row | Variant | protein stability index
1 | S10K | 4.24
2 | S10R | 4.06
3 | S10G | 4.75
4 | S10V | 4.2
5 | S10I | 4.6
6 | S10D | 4.84
7 | S10W | 4.46
8 | S10P | 4.39
9 | S10E | 4.51
10 | S10A | 4.62
11 | S10N | 3.58
12 | S10C | 4.83
13 | S10T | 4.1
14 | S10Y | 4.22
15 | S10H | 4.76
16 | S10M | 4.48
17 | S10Q | 4.73
18 | S10F | 4.05
19 | S10L | 4.09
20 | N18Q | 4.87
21 | N18V | 4.6
22 | N18H | 4.85
23 | N18G | 4.25
24 | N18T | 4.89

Row | Variant | protein stability index
25 | N18D | 4.51
26 | N18F | 4.33
27 | N18S | 4.21
28 | N18I | 4.3
29 | N18L | 4.25
30 | N18W | 3.42
31 | N18Y | 4.36
32 | N18E | 4.41
33 | N18A | 4.45
34 | N18K | 4.62
35 | N18P | 4.58
36 | N18M | 4.66
37 | N18R | 4.69
38 | N18C | 3.97
39 | P9V | 4.71
40 | P9D | 4.77
41 | P9L | 3.85
42 | P9M | 4.36
43 | P9A | 4.62
44 | P9F | 4.22
45 | P9N | 4.89
46 | P9Y | 3.62
47 | P9S | 4.68
48 | P9C | 4.33

Row | Variant | protein stability index
49 | P9I | 4.3
50 | P9E | 4.94
51 | P9K | 4.78
52 | P9T | 4.55
53 | P9W | 3.53
54 | P9Q | 5.12
55 | P9G | 4.52
56 | P9H | 4.49
57 | P9R | 4.45
58 | P17V | 4.67
59 | P17A | 3.6
60 | P17I | 3.87
61 | P17E | 4.96
62 | P17Q | 3.82
63 | P17K | 4.61
64 | P17G | 4.71
65 | P17Y | 4.05
66 | P17M | 4.56
67 | P17R | 4.2
68 | P17C | 3.76
69 | P17D | 4.35
70 | P17H | 4.26
71 | P17L | 4.14
72 | P17F | 4.24

Row | Variant | protein stability index
73 | P17W | 3.64
74 | P17N | 4.72
75 | P17S | 4.21
76 | P17T | 4.75
77 | K20Q | 4.55
78 | K20R | 4.4
79 | K20C | 4.3
80 | K20N | 4.41
81 | K20L | 4.41
82 | K20P | 3.77
83 | K20V | 3.66
84 | K20W | 3.41
85 | K20I | 3.61
86 | K20H | 4.4
87 | K20M | 3.75
88 | K20Y | 4.02
89 | K20F | 3.79
90 | K20A | 4.43
91 | K20T | 3.92
92 | K20G | 4.39
93 | K20E | 4.27
94 | K20D | 4.44
95 | K20S | 4.56
96 | P14A | 4.14

Row | Variant | protein stability index
97 | P14K | 4.39
98 | P14N | 4.41
99 | P14I | 4.22
100 | P14W | 4.01
101 | P14H | 4.37
102 | P14Y | 3.67
103 | P14D | 4.5
104 | P14V | 4.93
105 | P14R | 4.4
106 | P14E | 4.7
107 | P14S | 4.69
108 | P14C | 3.94
109 | P14G | 4.67
110 | P14F | 4.22
111 | P14L | 4.19
112 | P14T | 4.39
113 | P14M | 4.47
114 | P14Q | 4.98
115 | L5W | 4.31
116 | L5R | 4.42
117 | L5M | 4.76
118 | L5Y | 4.58
119 | L5P | 4.88
120 | L5Q | 4.69

Row | Variant | protein stability index
121 | L5N | 4.68
122 | L5V | 4.7
123 | L5T | 4.74
124 | L5S | 4.18
125 | L13F | 4.35
126 | L13I | 4.54
127 | L13R | 4.82
128 | L13M | 4.6
129 | L13K | 4.46
130 | L13N | 4.52
131 | L13H | 4.25
132 | L13Q | 4.09
133 | L13T | 5.11
134 | L13C | 4.47
135 | L13D | 4.4
136 | L13V | 4.88
137 | L13A | 4.88
138 | L13W | 4.45
139 | L13S | 4.76
140 | L13G | 4.27
141 | L13Y | 4.1
142 | L13E | 4.25
143 | S12R | 4.51
144 | S12D | 4.67

Row | Variant | protein stability index
145 | S12Q | 4.66
146 | S12H | 4.35
147 | S12E | 5.06
148 | S12W | 3.25
149 | S12V | 4.8
150 | S12N | 4.68
151 | S12M | 4.33
152 | S12K | 4.44
153 | S12P | 4.34
154 | S12A | 4.51
155 | S12G | 4.27
156 | S12Y | 4.12
157 | S12I | 4.56
158 | S12T | 4.07
159 | S12L | 3.44
160 | S12C | 4.18
161 | S12F | 4.29
162 | N7Q | 4.1
163 | N7G | 4.76
164 | N7W | 4.11
165 | N7C | 4.56
166 | N7D | 4.49
167 | N7M | 4.82
168 | N7H | 4.62

Row | Variant | protein stability index
169 | N7V | 4.45
170 | N7I | 3.95
171 | N7L | 4.67
172 | N7K | 4.52
173 | N7F | 3.38
174 | N7P | 5.37
175 | N7Y | 4.13
176 | N7E | 4.26
177 | N7S | 4.89
178 | N7R | 4.41
179 | N7A | 4.61
180 | N7T | 4.95
181 | S11K | 4.49
182 | S11W | 3.97
183 | S11G | 4.51
184 | S11E | 4.1
185 | S11V | 4.13
186 | S11M | 3.73
187 | S11C | 4.86
188 | S11F | 4.12
189 | S11R | 4.79
190 | S11Y | 4.28
191 | S11I | 4.68
192 | S11D | 4.94

Row | Variant | protein stability index
193 | S11A | 4.87
194 | S11H | 4.6
195 | S11Q | 4.53
196 | S11T | 3.48
197 | S11P | 4.61
198 | S11N | 4.19
199 | S11L | 4.01
200 | A15Y | 4.26
201 | A15R | 4.71
202 | A15M | 4.16
203 | A15G | 4.69
204 | A15K | 4.58
205 | A15I | 4.34
206 | A15P | 4.71
207 | A15C | 4.54
208 | A15N | 4.44
209 | A15Q | 5.06
210 | A15S | 4.56
211 | A15F | 4.21
212 | A15L | 4.19
213 | A15H | 4.59
214 | A15V | 4.59
215 | A15W | 4.01
216 | A15D | 4.75

Row | Variant | protein stability index
217 | A15T | 4.55
218 | A15E | 4.64
219 | Q16P | 4.94
220 | Q16K | 4.03
221 | Q16I | 4.35
222 | Q16M | 3.7
223 | Q16R | 5.25
224 | Q16Y | 3.99
225 | Q16D | 4.24
226 | Q16S | 4.91
227 | Q16W | 3.34
228 | Q16N | 4.73
229 | Q16F | 4.05
230 | Q16C | 4.39
231 | Q16V | 4.71
232 | Q16G | 4.51
233 | Q16H | 4.44
234 | Q16T | 4.53
235 | Q16A | 4.7
236 | Q16L | 4.32
237 | Q16E | 4.69
238 | R19K | 4.33
239 | R19S | 4.71
240 | R19L | 4.58

Row | Variant | protein stability index
241 | R19N | 4.69
242 | R19V | 4.71
243 | R19T | 4.57
244 | R19G | 4.49
245 | R19Q | 4.62
246 | R19P | 4.77
247 | R19M | 4.37
248 | R19I | 4.61
249 | R19F | 4.13
250 | R19H | 4.33
251 | R19D | 4.66
252 | R19W | 3.6
253 | R19E | 4.86
254 | R19Y | 3.94
255 | R19C | 4.27
256 | R19A | 4.61
257 | M23A | 5.03
258 | M23C | 4.84
259 | P6I | 2.71
260 | P6F | 3.28
261 | P6W | 3.34
262 | P6G | 4.26
263 | P6M | 3.36
264 | P6A | 3.96

Row | Variant | protein stability index
265 | P6V | 3.1
266 | P6R | 4.04
267 | P6D | 4.36
268 | P6E | 4.48
269 | P6T | 3.75
270 | P6Y | 2.66
271 | P6C | 3.56
272 | P6S | 4.44
273 | P6H | 3.02
274 | P6Q | 3.19
275 | P6L | 2.99
276 | P6K | 4.23
277 | P6N | 4.18
278 | P21W | 3.4
279 | P21N | 4.11
280 | P21E | 4.5
281 | P21G | 4.31
282 | P21S | 4.41
283 | P21C | 4.24
284 | P21L | 4.29
285 | P21T | 4.47
286 | P21Y | 4.05
287 | P21D | 4.59
288 | P21H | 4.45

Row | Variant | protein stability index
289 | P21K | 4.65
290 | P21V | 4.14
291 | P21M | 4.32
292 | P21A | 5
293 | P21R | 4.94
294 | P21I | 4.31
295 | P21Q | 4.96
296 | P21F | 4.32
297 | G22E | 4.68
298 | G22Q | 4.88
299 | G22N | 5.03
300 | G22Y | 4.01
301 | G22D | 4.78
302 | G22P | 4.24
303 | G22I | 4.39
304 | G22A | 4.48
305 | G22M | 4.2
306 | G22V | 4.29
307 | G22C | 4.4
308 | G22R | 4.92
309 | G22K | 4.64
310 | G22L | 4.22
311 | G22H | 4.32
312 | G22S | 4.08

Row | Variant | protein stability index
313 | G22F | 4.2
314 | G22W | 3.75
315 | G22T | 4.21
316 | V8R | 4.42
317 | V8S | 4.49
318 | V8I | 4.76
319 | V8Q | 4.43
320 | V8E | 5.14
321 | V8T | 4.69
322 | V8L | 4.4
323 | V8D | 4.54
324 | V8Y | 4.02
325 | V8N | 4.58
326 | V8F | 4.29
327 | V8W | 4.19
328 | V8C | 3.99
329 | V8G | 4.47
330 | V8A | 4.51
331 | V8H | 4.77
332 | V8M | 4.61
333 | V8K | 4.63
334 | V8P | 5.05
